# Paper PMC4414485
# Key:
# [1] = biological target: hERG1a(R56Q).Citrine (human) (UniProt Q12809)
# [2] = biological target: hERG1a(R56Q).Citrine (human) (UniProt Q12809); remark: listed apart in the source
substance,measurement,setting,value
isolated eag domain of hERG fused to CFP (i-eag.CFP) (domain or fragment),"fast deactivation time constant (tau fast) of hERG1a(R56Q) tail currents with co-expressed i-eag in HEK293 cells, whole-cell patch clamp, -120 to -20 mV (slower than hERG1a(R56Q) alone)",[1],307 ms
same,"fast deactivation time constant (tau fast) of hERG1a(R56Q) tail currents with co-expressed i-eag in hiPSC-CMs, whole-cell patch clamp, -120 to -20 mV (slower than hERG1a(R56Q) alone)",[1],326 ms
same,"slow deactivation time constant (tau slow) of hERG1a(R56Q) tail currents with co-expressed i-eag in HEK293 cells, whole-cell patch clamp, -120 to -20 mV (slower than hERG1a(R56Q) alone)",[1],1780 ms
same,"slow deactivation time constant (tau slow) of hERG1a(R56Q) tail currents with co-expressed i-eag in hiPSC-CMs, whole-cell patch clamp, -120 to -20 mV (slower than hERG1a(R56Q) alone)",[1],2340 ms
same,"V1/2 of steady-state inactivation of hERG R56Q channels with co-expressed i-eag in HEK293 cells (hERG R56Q alone -13.6 mV, WT hERG -32.2 mV)",[2],-24.7 mV
